Data: the supplement of paper PMC6757056
± gives the standard deviation of the averaged measurements.

B1: library; a variant is named by its letters at N, in order (parent)
chain: GCUGUCACCGGUGUAUUACCCUAGUGGUCGACCGGUCUGAUGAGUCUNNNNNNAGACGAAACAGC

Legend:
[1] = variants of: B1; assay: normalized RNA/DNA level with ligand (relative to sTRSVctl = 100) (log10 (% of sTRSVctl)); ligand: hypoxanthine (xanthine aptamer); higher = less ribozyme self-cleavage, higher mRNA level; details: ligand concentration (+) RNA-Seq: 5 mM, HEK293T, reporter: mCherry (pCS4076), ligand present: yes
Summary of the method: (§1)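 RNA level was computed as RNA reads over DNA reads divided by a spiked-in non-cleaving sequence or by the top sequences, then scaled and log-transformed. Scaling was ×100 with log10, the top group was 25 sequences, and the threshold was ≥100 DNA reads. The reads came from HEK293T cells transfected at 4 µg per 6-well well with ribozyme switch library plasmids (mCherry, or eGFP in some ligand experiments). Total RNA was extracted with EDTA 72 h after transfection, with any ligand added 1 h before it.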

[2] = variants of: B1; assay: normalized RNA/DNA level without ligand (relative to sTRSVctl = 100) (log10 (% of sTRSVctl)); ligand: hypoxanthine (xanthine aptamer); higher = less ribozyme self-cleavage, higher mRNA level; details: HEK293T, reporter: mCherry (pCS4076), ligand present: no
Summary of the method: as §1

Variant | normalized RNA/DNA level with ligand (log10) [1] | normalized RNA/DNA level without ligand (log10) [2]
GCUGUCACCGGUGUAUUACCCUAGUGGUCGACCGGUCUGAUGAGUCUAACGUUAGACGAAACAGC [AACGUU] | 1.91 ± 0.0075 | 1.829 ± 0.017
GCUGUCACCGGUGUAUUACCCUAGUGGUCGACCGGUCUGAUGAGUCUGACGCAAGACGAAACAGC [GACGCA] | 1.91 ± 0.052 | 1.82 ± 0.034
GCUGUCACCGGUGUAUUACCCUAGUGGUCGACCGGUCUGAUGAGUCUGACGCGAGACGAAACAGC [GACGCG] | 1.872 ± 0.0041 | 1.51 ± 0.11
GCUGUCACCGGUGUAUUACCCUAGUGGUCGACCGGUCUGAUGAGUCUGACGCCAGACGAAACAGC [GACGCC] | 1.9 ± 0.04 | 1.79 ± 0.054
GCUGUCACCGGUGUAUUACCCUAGUGGUCGACCGGUCUGAUGAGUCUCACGUGAGACGAAACAGC [CACGUG] | 1.92 ± 0.028 | 1.79 ± 0.095
GCUGUCACCGGUGUAUUACCCUAGUGGUCGACCGGUCUGAUGAGUCUCACGUCAGACGAAACAGC [CACGUC] | 1.98 ± 0.061 | 1.971 ± 0.005
GCUGUCACCGGUGUAUUACCCUAGUGGUCGACCGGUCUGAUGAGUCUCACGUUAGACGAAACAGC [CACGUU] | 1.96 ± 0.024 | 1.864 ± 0.0061
GCUGUCACCGGUGUAUUACCCUAGUGGUCGACCGGUCUGAUGAGUCUAACCUCAGACGAAACAGC [AACCUC] | 1.937 ± 0.018 | 1.96 ± 0.027
GCUGUCACCGGUGUAUUACCCUAGUGGUCGACCGGUCUGAUGAGUCUAACCUUAGACGAAACAGC [AACCUU] | 1.9 ± 0.054 | 1.895 ± 0.0019
GCUGUCACCGGUGUAUUACCCUAGUGGUCGACCGGUCUGAUGAGUCUUACGACAGACGAAACAGC [UACGAC] | 1.9194 ± 0.00024 | 1.804 ± 0.0045
GCUGUCACCGGUGUAUUACCCUAGUGGUCGACCGGUCUGAUGAGUCUCACGACAGACGAAACAGC [CACGAC] | 1.95 ± 0.028 | 1.84 ± 0.0038
GCUGUCACCGGUGUAUUACCCUAGUGGUCGACCGGUCUGAUGAGUCUCACGAGAGACGAAACAGC [CACGAG] | 1.9 ± 0.035 | 1.6 ± 0.026
GCUGUCACCGGUGUAUUACCCUAGUGGUCGACCGGUCUGAUGAGUCUCACGAUAGACGAAACAGC [CACGAU] | 1.95 ± 0.027 | 1.78 ± 0.043
GCUGUCACCGGUGUAUUACCCUAGUGGUCGACCGGUCUGAUGAGUCUUACGUUAGACGAAACAGC [UACGUU] | 1.956 ± 0.0074 | 1.86 ± 0.042
GCUGUCACCGGUGUAUUACCCUAGUGGUCGACCGGUCUGAUGAGUCUUACGUGAGACGAAACAGC [UACGUG] | 1.86 ± 0.063 | 1.6 ± 0.009
GCUGUCACCGGUGUAUUACCCUAGUGGUCGACCGGUCUGAUGAGUCUUACGUCAGACGAAACAGC [UACGUC] | 2.0228 ± 0.00028 | 1.94 ± 0.051
GCUGUCACCGGUGUAUUACCCUAGUGGUCGACCGGUCUGAUGAGUCUUACGUAAGACGAAACAGC [UACGUA] | 1.88 ± 0.09 | 1.829 ± 0.004
GCUGUCACCGGUGUAUUACCCUAGUGGUCGACCGGUCUGAUGAGUCUGACGGCAGACGAAACAGC [GACGGC] | 1.95 ± 0.07 | 1.63 ± 0.055
GCUGUCACCGGUGUAUUACCCUAGUGGUCGACCGGUCUGAUGAGUCUGACGGGAGACGAAACAGC [GACGGG] | 1.885 ± 0.0056 | 1.41 ± 0.039
GCUGUCACCGGUGUAUUACCCUAGUGGUCGACCGGUCUGAUGAGUCUGACGGUAGACGAAACAGC [GACGGU] | 1.95 ± 0.036 | 1.797 ± 0.0024
GCUGUCACCGGUGUAUUACCCUAGUGGUCGACCGGUCUGAUGAGUCUGACGGAAGACGAAACAGC [GACGGA] | 1.92 ± 0.047 | 1.683 ± 0.0063

Variant | normalized RNA/DNA level with ligand (log10) [1] | normalized RNA/DNA level without ligand (log10) [2]
GCUGUCACCGGUGUAUUACCCUAGUGGUCGACCGGUCUGAUGAGUCUGACCUCAGACGAAACAGC [GACCUC] | 1.93 ± 0.031 | 1.909 ± 0.0094
GCUGUCACCGGUGUAUUACCCUAGUGGUCGACCGGUCUGAUGAGUCUGACCUUAGACGAAACAGC [GACCUU] | 1.95 ± 0.033 | 1.885 ± 0.015
GCUGUCACCGGUGUAUUACCCUAGUGGUCGACCGGUCUGAUGAGUCUCACCUCAGACGAAACAGC [CACCUC] | 1.99 ± 0.081 | 1.969 ± 0.011
GCUGUCACCGGUGUAUUACCCUAGUGGUCGACCGGUCUGAUGAGUCUCACCUGAGACGAAACAGC [CACCUG] | 2.01 ± 0.064 | 1.922 ± 0.009
GCUGUCACCGGUGUAUUACCCUAGUGGUCGACCGGUCUGAUGAGUCUGACGUCAGACGAAACAGC [GACGUC] | 1.95 ± 0.046 | 1.85 ± 0.019
GCUGUCACCGGUGUAUUACCCUAGUGGUCGACCGGUCUGAUGAGUCUGACGUAAGACGAAACAGC [GACGUA] | 1.92 ± 0.033 | 1.773 ± 0.0082
GCUGUCACCGGUGUAUUACCCUAGUGGUCGACCGGUCUGAUGAGUCUGACGUGAGACGAAACAGC [GACGUG] | 1.83 ± 0.095 | 1.29 ± 0.024
GCUGUCACCGGUGUAUUACCCUAGUGGUCGACCGGUCUGAUGAGUCUUACGCUAGACGAAACAGC [UACGCU] | 1.95 ± 0.067 | 1.846 ± 0.012
GCUGUCACCGGUGUAUUACCCUAGUGGUCGACCGGUCUGAUGAGUCUUACGCGAGACGAAACAGC [UACGCG] | 1.893 ± 0.018 | 1.62 ± 0.069
GCUGUCACCGGUGUAUUACCCUAGUGGUCGACCGGUCUGAUGAGUCUUACGCCAGACGAAACAGC [UACGCC] | 2 ± 0.079 | 1.82 ± 0.036
GCUGUCACCGGUGUAUUACCCUAGUGGUCGACCGGUCUGAUGAGUCUUACGGUAGACGAAACAGC [UACGGU] | 1.847 ± 0.0077 | 1.59 ± 0.064
GCUGUCACCGGUGUAUUACCCUAGUGGUCGACCGGUCUGAUGAGUCUAACGCAAGACGAAACAGC [AACGCA] | 1.9072 ± 0.0004 | 1.76 ± 0.03
GCUGUCACCGGUGUAUUACCCUAGUGGUCGACCGGUCUGAUGAGUCUCACGGGAGACGAAACAGC [CACGGG] | 1.84 ± 0.033 | 1.32 ± 0.019
GCUGUCACCGGUGUAUUACCCUAGUGGUCGACCGGUCUGAUGAGUCUCACGGCAGACGAAACAGC [CACGGC] | 1.965 ± 0.003 | 1.87 ± 0.013
GCUGUCACCGGUGUAUUACCCUAGUGGUCGACCGGUCUGAUGAGUCUCACGGAAGACGAAACAGC [CACGGA] | 1.912 ± 0.0058 | 1.8 ± 0.048
GCUGUCACCGGUGUAUUACCCUAGUGGUCGACCGGUCUGAUGAGUCUUACCUUAGACGAAACAGC [UACCUU] | 1.927 ± 0.017 | 1.89 ± 0.054
GCUGUCACCGGUGUAUUACCCUAGUGGUCGACCGGUCUGAUGAGUCUUACCUCAGACGAAACAGC [UACCUC] | 1.99 ± 0.082 | 1.93 ± 0.067
GCUGUCACCGGUGUAUUACCCUAGUGGUCGACCGGUCUGAUGAGUCUCACGCGAGACGAAACAGC [CACGCG] | 1.9257 ± 1.5e-05 | 1.88 ± 0.029
GCUGUCACCGGUGUAUUACCCUAGUGGUCGACCGGUCUGAUGAGUCUCACGCAAGACGAAACAGC [CACGCA] | 1.92 ± 0.054 | 1.81 ± 0.041
GCUGUCACCGGUGUAUUACCCUAGUGGUCGACCGGUCUGAUGAGUCUCACGCCAGACGAAACAGC [CACGCC] | 1.99 ± 0.047 | 1.839 ± 0.015
GCUGUCACCGGUGUAUUACCCUAGUGGUCGACCGGUCUGAUGAGUCUAACGAUAGACGAAACAGC [AACGAU] | 1.9 ± 0.028 | 1.653 ± 0.011
